Data: IntAct's records for PubMed 35512704

B1: Mothers against decapentaplegic homolog 4 (Homo sapiens), Q13485 (parent)
chain: MDNMSITNTPTSNDACLSIVHSLMCHRQGGESETFAKRAIESLVKKLKEKKDELDSLITAITTNGAHPSKCVTIQRTLDGRLQVAGRKGFPHVIYARLWRWPDLHKNELKHVKYCQYAFDLKCDSVCVNPYHYERVVSPGIDLSGLTLQSNAPSSMMVKDEYVHDFEGQPSLSTEGHSIQTIQHPPSNRASTETYSTPALLAPSESNATSTANFPNIPVASTSQPASILGGSHSEGLLQIASGPQPGQQQNGFTGQPATYHHNSTTTWTGSRTAPYTPNLPHHQNGHLQHHPPMPPHPGHYWPVHNELAFQPPISNHPAPEYWCSIAYFEMDVQVGETFKVPSSCPIVTVDGYVDPSGGDRFCLGQLSNVHRTEAIERARLHIGKGVQLECKGEGDVWVRCLSDHAVFVQSYYLDREAGRAPGDAVHKIYPSAYIKVFDLRQCHRQMQQQAATAQAAAAAQAAAVAGNIPGPGSVGGIAPAISLSAAAGIGVDDLRRLCILRMSFVKGWGPDYPRQSIKETPCWIEIHLHRALQLLDEVLHTMPIADPQPLD
partner: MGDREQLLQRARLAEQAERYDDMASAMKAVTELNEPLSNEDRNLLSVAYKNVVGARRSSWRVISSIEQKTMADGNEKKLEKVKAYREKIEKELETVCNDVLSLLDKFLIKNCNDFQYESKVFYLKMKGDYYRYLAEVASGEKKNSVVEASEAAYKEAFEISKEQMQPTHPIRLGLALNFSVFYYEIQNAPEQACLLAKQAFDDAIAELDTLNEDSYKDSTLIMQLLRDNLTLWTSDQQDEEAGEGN
B2: Mothers against decapentaplegic homolog 4 (Homo sapiens), Q13485 (parent)
chain: B1 chain
partner: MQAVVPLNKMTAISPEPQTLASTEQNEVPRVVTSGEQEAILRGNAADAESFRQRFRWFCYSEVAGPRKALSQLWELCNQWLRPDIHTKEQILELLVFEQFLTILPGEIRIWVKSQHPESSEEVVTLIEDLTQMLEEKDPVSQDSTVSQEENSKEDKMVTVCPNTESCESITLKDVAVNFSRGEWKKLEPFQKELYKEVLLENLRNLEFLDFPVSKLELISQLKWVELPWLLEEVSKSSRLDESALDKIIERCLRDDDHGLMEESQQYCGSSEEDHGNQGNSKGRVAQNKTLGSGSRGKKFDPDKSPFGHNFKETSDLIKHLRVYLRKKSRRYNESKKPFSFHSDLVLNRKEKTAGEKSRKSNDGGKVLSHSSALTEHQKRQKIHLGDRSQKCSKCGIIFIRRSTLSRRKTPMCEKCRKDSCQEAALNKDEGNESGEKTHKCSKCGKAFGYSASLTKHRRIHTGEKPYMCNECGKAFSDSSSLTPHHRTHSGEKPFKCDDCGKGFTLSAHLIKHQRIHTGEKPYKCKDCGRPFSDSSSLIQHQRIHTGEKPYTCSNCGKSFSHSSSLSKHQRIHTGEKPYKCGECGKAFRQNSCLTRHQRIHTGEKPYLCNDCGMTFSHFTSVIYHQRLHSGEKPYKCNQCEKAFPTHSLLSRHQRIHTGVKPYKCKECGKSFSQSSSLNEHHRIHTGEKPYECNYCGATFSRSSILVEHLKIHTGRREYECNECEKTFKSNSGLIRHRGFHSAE
B3: Mothers against decapentaplegic homolog 4 (Homo sapiens), Q13485 (parent)
chain: B1 chain
partner: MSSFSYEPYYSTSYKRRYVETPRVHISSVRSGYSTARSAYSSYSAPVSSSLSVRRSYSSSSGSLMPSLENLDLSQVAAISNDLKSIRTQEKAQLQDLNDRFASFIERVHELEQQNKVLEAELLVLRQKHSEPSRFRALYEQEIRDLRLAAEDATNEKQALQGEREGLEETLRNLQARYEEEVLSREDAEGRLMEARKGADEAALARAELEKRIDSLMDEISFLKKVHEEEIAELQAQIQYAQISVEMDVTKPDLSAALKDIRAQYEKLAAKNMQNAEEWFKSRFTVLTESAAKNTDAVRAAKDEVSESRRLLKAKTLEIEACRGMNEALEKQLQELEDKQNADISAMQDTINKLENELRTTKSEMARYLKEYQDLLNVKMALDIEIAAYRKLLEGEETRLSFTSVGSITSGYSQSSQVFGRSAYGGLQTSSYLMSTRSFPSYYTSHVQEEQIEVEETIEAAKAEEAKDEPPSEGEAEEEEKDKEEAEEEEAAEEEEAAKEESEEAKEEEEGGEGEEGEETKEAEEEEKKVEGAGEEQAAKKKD
B4: Mothers against decapentaplegic homolog 4 (Homo sapiens), Q13485 (parent)
chain: B1 chain
partner: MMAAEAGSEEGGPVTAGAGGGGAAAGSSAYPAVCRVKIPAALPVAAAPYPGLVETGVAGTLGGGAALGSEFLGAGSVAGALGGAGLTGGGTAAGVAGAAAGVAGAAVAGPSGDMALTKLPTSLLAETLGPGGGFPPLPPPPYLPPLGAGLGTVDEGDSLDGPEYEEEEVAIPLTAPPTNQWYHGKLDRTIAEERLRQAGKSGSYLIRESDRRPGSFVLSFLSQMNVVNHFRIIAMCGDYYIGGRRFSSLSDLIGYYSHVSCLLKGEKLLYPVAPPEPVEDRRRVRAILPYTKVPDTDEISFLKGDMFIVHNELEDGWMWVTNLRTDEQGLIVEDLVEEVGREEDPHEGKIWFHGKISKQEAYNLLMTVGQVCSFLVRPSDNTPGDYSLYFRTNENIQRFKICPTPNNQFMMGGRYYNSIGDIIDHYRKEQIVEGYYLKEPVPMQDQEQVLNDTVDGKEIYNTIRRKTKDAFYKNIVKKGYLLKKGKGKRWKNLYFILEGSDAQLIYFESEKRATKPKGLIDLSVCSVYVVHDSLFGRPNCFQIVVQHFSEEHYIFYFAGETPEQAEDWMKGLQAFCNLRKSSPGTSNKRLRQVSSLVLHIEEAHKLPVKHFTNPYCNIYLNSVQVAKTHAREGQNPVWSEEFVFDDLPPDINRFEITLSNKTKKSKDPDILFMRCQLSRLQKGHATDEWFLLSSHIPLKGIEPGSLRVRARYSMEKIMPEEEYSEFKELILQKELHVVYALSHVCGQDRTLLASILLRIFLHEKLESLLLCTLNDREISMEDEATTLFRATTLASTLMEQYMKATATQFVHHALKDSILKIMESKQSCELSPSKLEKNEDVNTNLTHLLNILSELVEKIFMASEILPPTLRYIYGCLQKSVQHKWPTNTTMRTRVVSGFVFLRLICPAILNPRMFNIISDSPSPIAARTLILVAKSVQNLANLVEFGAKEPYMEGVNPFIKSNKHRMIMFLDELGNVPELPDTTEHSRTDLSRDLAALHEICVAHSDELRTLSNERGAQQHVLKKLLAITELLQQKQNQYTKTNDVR
B5: Mothers against decapentaplegic homolog 4 (Homo sapiens), Q13485 (parent)
chain: B1 chain
partner: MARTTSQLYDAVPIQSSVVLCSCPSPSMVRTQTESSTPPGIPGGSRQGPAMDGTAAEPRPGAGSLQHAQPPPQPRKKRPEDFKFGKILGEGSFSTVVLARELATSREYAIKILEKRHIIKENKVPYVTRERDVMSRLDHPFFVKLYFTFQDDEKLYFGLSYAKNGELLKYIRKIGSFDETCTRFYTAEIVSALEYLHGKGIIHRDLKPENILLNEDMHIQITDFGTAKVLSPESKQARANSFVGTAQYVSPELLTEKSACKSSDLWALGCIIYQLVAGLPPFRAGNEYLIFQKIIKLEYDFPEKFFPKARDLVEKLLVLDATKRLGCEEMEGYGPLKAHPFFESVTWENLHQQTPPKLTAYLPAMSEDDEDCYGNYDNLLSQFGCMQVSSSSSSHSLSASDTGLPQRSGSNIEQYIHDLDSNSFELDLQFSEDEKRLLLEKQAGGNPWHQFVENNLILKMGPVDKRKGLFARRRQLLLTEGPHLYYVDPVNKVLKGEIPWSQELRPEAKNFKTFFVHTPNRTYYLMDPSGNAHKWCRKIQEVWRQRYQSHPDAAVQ
B6: Mothers against decapentaplegic homolog 4 (Homo sapiens), Q13485 (parent)
chain: B1 chain
partner: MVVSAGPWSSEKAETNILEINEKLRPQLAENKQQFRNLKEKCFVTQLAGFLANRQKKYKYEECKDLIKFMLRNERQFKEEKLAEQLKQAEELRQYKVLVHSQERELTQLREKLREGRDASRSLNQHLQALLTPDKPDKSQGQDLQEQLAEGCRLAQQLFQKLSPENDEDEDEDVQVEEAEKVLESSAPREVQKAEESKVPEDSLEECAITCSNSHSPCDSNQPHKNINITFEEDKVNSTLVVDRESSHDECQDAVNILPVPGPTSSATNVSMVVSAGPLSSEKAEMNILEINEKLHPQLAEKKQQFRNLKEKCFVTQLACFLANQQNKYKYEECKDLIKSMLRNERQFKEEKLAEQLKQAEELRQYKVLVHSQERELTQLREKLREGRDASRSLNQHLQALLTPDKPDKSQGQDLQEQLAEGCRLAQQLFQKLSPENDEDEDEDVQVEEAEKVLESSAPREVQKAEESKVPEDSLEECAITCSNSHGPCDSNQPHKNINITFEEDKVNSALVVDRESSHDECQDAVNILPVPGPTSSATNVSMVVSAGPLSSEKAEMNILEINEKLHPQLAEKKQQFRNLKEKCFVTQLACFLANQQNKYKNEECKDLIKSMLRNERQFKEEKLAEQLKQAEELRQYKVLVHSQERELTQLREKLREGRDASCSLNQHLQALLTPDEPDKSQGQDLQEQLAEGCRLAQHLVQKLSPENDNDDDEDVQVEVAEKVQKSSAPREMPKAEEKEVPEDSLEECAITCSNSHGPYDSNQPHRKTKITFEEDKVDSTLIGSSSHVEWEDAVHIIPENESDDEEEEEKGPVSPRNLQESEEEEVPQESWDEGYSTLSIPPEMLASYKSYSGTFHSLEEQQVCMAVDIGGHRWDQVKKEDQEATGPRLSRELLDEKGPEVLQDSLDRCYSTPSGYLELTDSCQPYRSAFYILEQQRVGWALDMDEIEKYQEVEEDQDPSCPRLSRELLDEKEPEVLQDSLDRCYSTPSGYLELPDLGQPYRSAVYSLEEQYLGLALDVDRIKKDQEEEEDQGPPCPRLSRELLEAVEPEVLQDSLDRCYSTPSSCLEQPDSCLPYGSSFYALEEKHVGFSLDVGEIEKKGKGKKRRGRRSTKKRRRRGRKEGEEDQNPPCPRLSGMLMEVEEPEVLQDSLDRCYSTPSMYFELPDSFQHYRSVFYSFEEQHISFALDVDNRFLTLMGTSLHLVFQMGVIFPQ

Variants of: B1
Conditions: with 1433f_human YWHAH

effect of a mutation on the interaction | Variant
with no effect | G386D

Variants of: B1
Conditions: with 1433f_human YWHAH
Remark: another data set of the same source

effect of a mutation on the interaction | Variant
with no effect | D351H

Variants of: B2
Conditions: with zn483_human ZNF483, Q8TF39

effect of a mutation on the interaction | Variant
with no effect | R361H

Variants of: B2
Conditions: with zn483_human ZNF483, Q8TF39
Remark: another data set of the same source

effect of a mutation on the interaction | Variant
with no effect | R361C

Variants of: B3
Conditions: with nfl_human NEFL

effect of a mutation on the interaction | Variant
with no effect | G386D

Variants of: B4
Conditions: with rasa1_human RASA1, P20936

effect of a mutation on the interaction | Variant
with no effect | R361H

Variants of: B5
Conditions: with pdpk1_human PDPK1, O15530

effect of a mutation on the interaction | Variant
with no effect | R361H

Variants of: B6
Conditions: with nbpf1_human NBPF1, Q3BBV0

effect of a mutation on the interaction | Variant
with no effect | G386D
